# Measured values published in the supplement of paper PMC7877785.
# ± gives the uncertainty stated by the source.
# Assay: self-splicing fitness, log relative to wild type (ln ratio); higher = more splicing; Tetrahymena group I intron in knt gene, E. coli kanamycin selection, DiMSum; sequences stand for … in CUCUCU…GGAGGGAAAAGUUAUCAGGCAUGCACCUGGUAGCUAGUCUUUAAACCAAUAGAUUGCAUCGGUUUAAAAGGCAAGACCGUCAAAUUGCGGGAAAGGGGUCAACAGCCGUUCAGUACCAAGUCUCAGGGGAAACUUUGAGAUGGCCUUGCAAAGGGUAUGGUAAUAAGCUGACGGACAUGGUCCUAACCACGCAGCCAAGUCCUAAGUCAACAGAUCUUCUGUUGAUAUGGAUGCAGUUCACAGACUAAAUGUCGGUCGGGGAAGAUGUAUUCUUCUCAUAAGAUAUAGUCGGACCUCUCCUUAAUGGGAGCUAGCGGAUGAAGUGAUGCAACACUGGAGCCGCUGGGAACUAAUUUGUAUGCGAAAGUAUAUUGAUUAGUUUUGGAGUACUCGUGGUCG
# Outline: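 Pooled colonies went to amplicon sequencing on an Illumina HiSeq 2500 after six replicate transformations. The plates were LB agar with 100 μg/mL carbenicillin, 50 μM IPTG and 0.2% rhamnose, with or without 25 μg/mL kanamycin, incubated overnight at 37°C or 30°C. The E. coli BL21(DE3) library had all eight P1ex-region intron nucleotides randomised, the intron placed in the knt kanamycin-resistance gene on pET-22b(+). DiMSum fitness is the error-weighted combination of replicate fold changes, kanamycin against none, normalised to wild type.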
Sequence,self-splicing fitness (ln) (30 °C),self-splicing fitness (ln) (37 °C)
AUGUAGCAAUAUUACGGAUA,-1.43 ± 0.16,-1.83 ± 0.28
AUGUAGCAAUAUUACGGCAC,-1.59 ± 0.18,0.329 ± 0.18
AUGUAGCAAUAUUACGGCUG,-1.95 ± 0.14,-2.27 ± 0.28
AUGUAGCAAUAUUACGGGAU,-1.9 ± 0.12,-1.33 ± 0.2
AUGUAGCAAUAUUACGUAAU,-1.21 ± 0.11,-0.524 ± 0.12
AUGUAGCAAUAUUACGUCCG,-2.71 ± 0.13,-1.39 ± 0.12
AUGUAGCAAUAUUACGUCUA,-1.25 ± 0.14,-0.893 ± 0.15
AUGUAGCAAUAUUACGUGUC,-3.79 ± 0.31,-2.81 ± 0.26
AUGUAGCAAUAUUACGUUGA,-3.43 ± 0.29,-1.35 ± 0.22
AUGUAGCAAUAUUACGUUUA,-2.38 ± 0.13,-1.86 ± 0.12
AUUAAGCAAUAUUACGAAUA,-1.29 ± 0.21,-0.938 ± 0.21
AUUAAGCAAUAUUACGAGAA,,-1.08 ± 0.38
AUUAAGCAAUAUUACGAGAU,-2.99 ± 0.21,-1.47 ± 0.16
AUUAAGCAAUAUUACGAGCU,-0.659 ± 0.14,-0.821 ± 0.2
AUUAAGCAAUAUUACGAGUU,-2.42 ± 0.17,-1.27 ± 0.22
AUUAAGCAAUAUUACGCGCG,-0.63 ± 0.13,-0.752 ± 0.17
AUUAAGCAAUAUUACGCGGC,,-2.33 ± 0.31
AUUAAGCAAUAUUACGCUGU,-3.23 ± 0.16,-1.97 ± 0.19
AUUAAGCAAUAUUACGCUUU,-2.38 ± 0.24,-1.24 ± 0.32

Sequence,self-splicing fitness (ln) (30 °C),self-splicing fitness (ln) (37 °C)
AUUAAGCAAUAUUACGGCUG,-0.405 ± 0.083,-0.233 ± 0.1
AUUAAGCAAUAUUACGGGGU,-4.11 ± 0.24,-2.83 ± 0.2
AUUAAGCAAUAUUACGGUUA,-1.18 ± 0.095,-1.19 ± 0.085
AUUAAGCAAUAUUACGUAAG,-0.562 ± 0.12,-0.864 ± 0.19
AUUAAGCAAUAUUACGUCUG,-1.74 ± 0.11,-0.762 ± 0.12
AUUAAGCAAUAUUACGUGAU,-1.74 ± 0.089,-1.34 ± 0.12
AUUAAGCAAUAUUACGUGCA,-1.03 ± 0.089,-0.282 ± 0.11
AUUAAGCAAUAUUACGUGUC,-3.58 ± 0.21,-1.02 ± 0.16
AUUCAGCAAUAUUACGAAUG,-1.54 ± 0.11,-0.673 ± 0.13
AUUCAGCAAUAUUACGACAA,-0.461 ± 0.15,-0.889 ± 0.19
AUUCAGCAAUAUUACGACUC,-0.805 ± 0.19,0.11 ± 0.19
AUUCAGCAAUAUUACGAGAU,-2.7 ± 0.17,-0.722 ± 0.13
AUUCAGCAAUAUUACGCCUC,-1.43 ± 0.15,0.286 ± 0.16
AUUCAGCAAUAUUACGCGUG,-1.25 ± 0.054,-0.218 ± 0.069
AUUCAGCAAUAUUACGGCUA,0.293 ± 0.09,-0.022 ± 0.084
AUUCAGCAAUAUUACGUAAA,-0.737 ± 0.08,-0.148 ± 0.12
AUUCAGCAAUAUUACGUAGG,-1.64 ± 0.13,-0.941 ± 0.17
AUUCAGCAAUAUUACGUCUG,-2.09 ± 0.11,-1.33 ± 0.11
AUUCAGCAAUAUUACGUGAU,-0.92 ± 0.061,-0.187 ± 0.078
